Legend:
[1] = set-up: method as in PMID 21968061; details: DPPH radical scavenging (antioxidant activity); cited from earlier work
expressed human UGT1A1 = target: T1, expressed human UGT1A1 (Homo sapiens, UniProt P22309); assay: Glucuronidation by expressed UGT1A1
T1 sequence (P22309 26-533): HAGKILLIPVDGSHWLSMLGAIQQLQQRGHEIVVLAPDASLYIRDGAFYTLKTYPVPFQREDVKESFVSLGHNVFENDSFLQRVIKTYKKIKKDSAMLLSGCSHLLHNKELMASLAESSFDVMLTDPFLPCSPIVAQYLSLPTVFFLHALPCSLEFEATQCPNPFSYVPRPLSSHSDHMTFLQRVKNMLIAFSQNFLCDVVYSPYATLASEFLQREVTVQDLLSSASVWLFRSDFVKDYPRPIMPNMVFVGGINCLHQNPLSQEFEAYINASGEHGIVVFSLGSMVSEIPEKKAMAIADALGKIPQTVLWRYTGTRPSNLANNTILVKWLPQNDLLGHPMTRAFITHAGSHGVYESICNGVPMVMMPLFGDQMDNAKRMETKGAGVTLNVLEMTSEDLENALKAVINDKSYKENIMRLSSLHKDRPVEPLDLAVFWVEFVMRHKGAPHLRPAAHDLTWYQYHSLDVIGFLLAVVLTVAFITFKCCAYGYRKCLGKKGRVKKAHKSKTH
Procedure: (§1) The reaction was terminated by adding ice-cold acetonitrile. […] All experiments were performed in triplicate.
The gradient elution program was the same as the UPLC condition of the structural identification of wushanicaritin glucuronides above. The detection wavelength was set at 270 nm, and the injection volume was 8 µL.
(§2) The parameter were as follow. V is the formation rate of the product. Vmax is the maximal velocity. […] Ksi is the substrate inhibition constant. […] (1) V=Vmax ×[S]/Km+[S] (2) V=Vmax ×[S]/Km + [S](1+[S]/Ksi)
The contribution of individual expressed UGT enzymes to wushanicaritin glucuronidation in HLM was evaluated by the relative activity factor (RAF) approach as described in previous studies. The relative activity factor was defined as the activity ratio of HLM to an expressed UGT enzyme (Supersome) toward a probe substrate for this enzyme using Equation (3). The relative amount of wushanicaritin glucuronidation in HLM attributed to an expressed UGT enzyme was estimated by multiplying the glucuronidation activity (i.e., the intrinsic clearance) derived with this enzyme by the corresponding RAF. […] The contributions of individual UGT enzyme were calculated according to Equation (4). (3) RAF=CLint{probe,pHLM}/CLint{probe,Supersome} (4) Contribution of UGTs=CLint(wushanica ritin,UGTs)/CLint(wushanica ritin,pHLM)×RAF

[2] = Glucuronidation by pooled human liver microsomes (HLM), UDPGA-supplemented; type: in vitro ADME; details: probe substrate glucuronidation
Procedure: as §1, §2

[3] = substrate: COc1ccc(-c2oc3c(CCC(C)(C)O)c(O)cc(O)c3c(=O)c2O)cc1; assay: Glucuronidation by expressed UGT1A7; type: in vitro ADME, human; details: pH 7.4
Procedure: as §1, §2

[4] = substrate: COc1ccc(-c2oc3c(CCC(C)(C)O)c(O)cc(O)c3c(=O)c2O)cc1; assay: Glucuronidation by expressed UGT1A8; type: in vitro ADME, human; details: pH 7.4
Procedure: as §1, §2

not read [5] = substrate: COc1ccc(-c2oc3c(CCC(C)(C)O)c(O)cc(O)c3c(=O)c2O)cc1; assay: not read; details: pH 7.4
Procedure: Briefly, the incubation mixture mainly contained 50 mM Tris-hydrochloric acid buffer (pH 7.4), 0.88 mM MgCl2, 22 µg/mL alamethicin, 4.4 mM saccharolactone and 3.5 mM UDPGA [32]. The reaction was terminated by adding ice-cold acetonitrile. […] The supernatant was subjected to UPLC/Q-TOF-MS (Waters Corporation, Manchester, UK) analysis. […] All experiments were performed in triplicate. Preliminary experiments were performed to ensure that the rates of glucuronidation were determined under linear conditions with respect to the incubation time and protein concentration.
Appropriate models were selected by visual inspection of the Eadie–Hofstee plot [34]. Model fitting and parameter estimation were performed by GraphPad Prism V5 software (GraphPad Software, Inc., San Diego, CA, USA).
V is the formation rate of the product. Vmax is the maximal velocity. Km is the Michaelis constant, and [S] is the substrate. Ksi is the substrate inhibition constant. The intrinsic clearance (CLint) was derived by Vmax/Km for the Michaelis–Menten and substrate inhibition models [12]. (1) V=Vmax ×[S]/Km+[S] (2) V=Vmax ×[S]/Km + [S](1+[S]/Ksi)
(§3) The contribution of individual expressed UGT enzymes to wushanicaritin glucuronidation in HLM was evaluated by the relative activity factor (RAF) approach as described in previous studies [2, 12]. The relative activity factor was defined as the activity ratio of HLM to an expressed UGT enzyme (Supersome) toward a probe substrate for this enzyme using Equation (3). The relative amount of wushanicaritin glucuronidation in HLM attributed to an expressed UGT enzyme was estimated by multiplying the glucuronidation activity (i.e., the intrinsic clearance) derived with this enzyme by the corresponding RAF. […] The contributions of individual UGT enzyme were calculated according to Equation (4). (3) RAF=CLint{probe,pHLM}/CLint{probe,Supersome} (4) Contribution of UGTs=CLint(wushanica ritin,UGTs)/CLint(wushanica ritin,pHLM)×RAF

not read [6] = substrate: C[C@H](CCC(=O)O)[C@H]1CC[C@H]2[C@@H]3[C@H](O)C[C@@H]4C[C@H](O)CC[C@]4(C)[C@H]3CC[C@]12C; assay: not read; details: other: probe substrate glucuronidation; UGT1A3; pH 7.4
[7] = substrate: COc1ccc(-c2oc3c(CCC(C)(C)O)c(O)cc(O)c3c(=O)c2O)cc1; assay: Glucuronidation by expressed UGT1A3; type: in vitro ADME, human; details: pH 7.4
Procedure: Wushanicaritin was incubated with HLM, HIM and expressed UGTs enzymes to determine the rates of glucuronidation as published previously [12, 23, 31]. Briefly, the incubation mixture mainly contained 50 mM Tris-hydrochloric acid buffer (pH 7.4), 0.88 mM MgCl2, 22 µg/mL alamethicin, 4.4 mM saccharolactone and 3.5 mM UDPGA [32]. The reaction was terminated by adding ice-cold acetonitrile. The samples were vortexed and centrifuged at 13,800× g for 10 min. The supernatant was subjected to UPLC/Q-TOF-MS (Waters Corporation, Manchester, UK) analysis. […] Similarly, wushanicaritin was incubated with DLM, RLM, MkLM, RaLM and GpLM in the same way as for HLM. All experiments were performed in triplicate. Preliminary experiments were performed to ensure that the rates of glucuronidation were determined under linear conditions with respect to the incubation time and protein concentration.
Serial concentrations of wushanicaritin (0.156–20 µM) were incubated with HLM, HIM and expressed UGTs enzymes to determine wushanicaritin glucuronidation rates. […] Appropriate models were selected by visual inspection of the Eadie–Hofstee plot [34]. Model fitting and parameter estimation were performed by GraphPad Prism V5 software (GraphPad Software, Inc., San Diego, CA, USA).
The parameter were as follow. V is the formation rate of the product. Vmax is the maximal velocity. Km is the Michaelis constant, and [S] is the substrate. Ksi is the substrate inhibition constant. The intrinsic clearance (CLint) was derived by Vmax/Km for the Michaelis–Menten and substrate inhibition models [12]. (1) V=Vmax ×[S]/Km+[S] (2) V=Vmax ×[S]/Km + [S](1+[S]/Ksi)
as §3

[8] = other: formation of G1 (3-O-glucuronide)
[9] = other: formation of G2 (7-O-glucuronide)
[10] = other: formation of G1 (3-O-glucuronide), UGT1A1
[11] = other: formation of G2 (7-O-glucuronide), UGT1A1
[12] = other: formation of G1 (3-O-glucuronide), UGT2B7
[13] = other: formation of G2 (7-O-glucuronide), UGT2B7

O=C1O[C@H]([C@@H](O)CO)C(O)=C1O [vitamin C, reference compound]
IC50 [1]: 32 µM

C[C@]12CC[C@@H]3c4ccc(O)cc4CC[C@H]3[C@@H]1CC[C@@H]2O [β-estradiol, reference compound]
Km (expressed human UGT1A1): 25.3 ± 4.28 µM
Vmax [2]: 0.19 ± 0.09 nmol/min/mg

B1: expressed human UGT1A7 (Homo sapiens) (protein)
chain: GKLLVVPMDGSHWFTMQSVVEKLILRGHEVVVVMPEVSWQLGRSLNCTVKTYSTSYTLEDQDREFMVFADARWTAPLRSAFSLLTSSSNGIFDLFFSNCRSLFNDRKLVEYLKESCFDAVFLDPFDACGLIVAKYFSLPSVVFARGIFCHYLEEGAQCPAPLSYVPRLLLGFSDAMTFKERVWNHIMHLEEHLFCPYFFKNVLEIASEILQTPVTAYDLYSHTSIWLLRTDFVLEYPKPVMPNMIFIGGINCHQGKPVPMEFEAYINASGEHGIVVFSLGSMVSEIPEKKAMAIADALGKIPQTVLWRYTGTRPSNLANNTILVKWLPQNDLLGHPMTRAFITHAGSHGVYESICNGVPMVMMPLFGDQMDNAKRMETKGAGVTLNVLEMTSEDLENALKAVINDKSYKENIMRLSSLHKDRPVEPLDLAVFWVEFVMRHKGAPHLRPAAHDLTWYQYHSLDVIGFLLAVVLTVAFITFKCCAYGYRKCLGKKGRVKKAHKSKTH
notes: purchased Corning Biosciences
K0.5 [3, 8]: 0.47 ± 0.03 µM
Vmax [3, 8]: 0.00017 µmol/min/mg
Vmax/Km [3, 8]: 360 µL/min/mg
K0.5 [3, 9]: 0.61 ± 0.08 µM
Vmax [3, 9]: 0.00023 µmol/min/mg
Vmax/Km [3, 9]: 380 µL/min/mg

B2: expressed human UGT1A8 (Homo sapiens) (protein)
chain: GKLLVVPMDGSHWFTMQSVVEKLILRGHEVVVVMPEVSWQLGKSLNCTVKTYSTSYTLEDLDREFMDFADAQWKAQVRSLFSLFLSSSNGFFNLFFSHCRSLFNDRKLVEYLKESSFDAVFLDPFDACGLIVAKYFSLPSVVFARGIACHYLEEGAQCPAPLSYVPRILLGFSDAMTFKERVRNHIMHLEEHLFCQYFSKNALEIASEILQTPVTAYDLYSHTSIWLLRTDFVLDYPKPVMPNMIFIGGINCHQGKPLPMEFEAYINASGEHGIVVFSLGSMVSEIPEKKAMAIADALGKIPQTVLWRYTGTRPSNLANNTILVKWLPQNDLLGHPMTRAFITHAGSHGVYESICNGVPMVMMPLFGDQMDNAKRMETKGAGVTLNVLEMTSEDLENALKAVINDKSYKENIMRLSSLHKDRPVEPLDLAVFWVEFVMRHKGAPHLRPAAHDLTWYQYHSLDVIGFLLAVVLTVAFITFKCCAYGYRKCLGKKGRVKKAHKSKTH
notes: purchased Corning Biosciences
K0.5 [4, 8]: 0.38 ± 0.03 µM
Vmax [4, 8]: 2e-05 µmol/min/mg
Vmax/Km [4, 8]: 50 µL/min/mg
K0.5 [4, 9]: 0.58 ± 0.07 µM
Vmax [4, 9]: 7e-05 µmol/min/mg
Vmax/Km [4, 9]: 120 µL/min/mg

B3: expressed human UGT1A1 (Homo sapiens) (protein)
chain: T1 sequence (P22309 26-533)
K0.5 (not read [5]; [10]): 0.98 ± 0.20 µM
Vmax (not read [5]; [10]): 0.00113 µmol/min/mg
Vmax/Km (not read [5]; [10]): 1160 µL/min/mg
K0.5 (not read [5]; [11]): 0.68 ± 0.08 µM
Vmax (not read [5]; [11]): 0.00011 µmol/min/mg
Vmax/Km (not read [5]; [11]): 160 µL/min/mg

B4: expressed human UGT1A3 (Homo sapiens) (protein)
chain: GKVLVVPIDGSHWLSMREVLRELHARGHQAVVLTPEVNMHIKEENFFTLTTYAISWTQDEFDRHVLGHTQLYFETEHFLKKFFRSMAMLNNMSLVYHRSCVELLHNEALIRHLNATSFDVVLTDPVNLCAAVLAKYLSIPTVFFLRNIPCDLDFKGTQCPNPSSYIPRLLTTNSDHMTFMQRVKNMLYPLALSYICHAFSAPYASLASELFQREVSVVDILSHASVWLFRGDFVMDYPRPIMPNMVFIGGINCANRKPLSQEFEAYINASGEHGIVVFSLGSMVSEIPEKKAMAIADALGKIPQTVLWRYTGTRPSNLANNTILVKWLPQNDLLGHPMTRAFITHAGSHGVYESICNGVPMVMMPLFGDQMDNAKRMETKGAGVTLNVLEMTSEDLENALKAVINDKSYKENIMRLSSLHKDRPVEPLDLAVFWVEFVMRHKGAPHLRPAAHDLTWYQYHSLDVIGFLLAVVLTVAFITFKCCAYGYRKCLGKKGRVKKAHKSKTH
notes: purchased Corning Biosciences
Km (not read [6]): 10.90 ± 0.74 µM
Vmax (not read [6]): 0.0002 µmol/min/mg
Vmax/Km (not read [6]): 18.5 µL/min/mg
K0.5 [7, 8]: 0.45 ± 0.04 µM
Vmax [7, 8]: 0.00017 µmol/min/mg
Vmax/Km [7, 8]: 360 µL/min/mg
K0.5 [7, 9]: 0.61 ± 0.08 µM
Vmax [7, 9]: 0.00023 µmol/min/mg
Vmax/Km [7, 9]: 380 µL/min/mg

B5: expressed human UGT2B7 (Homo sapiens) (protein)
chain: GKVLVWAAEYSHWMNIKTILDELIQRGHEVTVLASSASILFDPNNSSALKIEIYPTSLTKTELENFIMQQIKRWSDLPKDTFWLYFSQVQEIMSIFGDITRKFCKDVVSNKKFMKKVQESRFDVIFADAIFPCSELLAELFNIPFVYSLSFSPGYTFEKHSGGFIFPPSYVPVVMSELTDQMTFMERVKNMIYVLYFDFWFEIFDMKKWDQFYSEVLGRPTTLSETMGKADVWLIRNSWNFQFPYPLLPNVDFVGGLHCKPAKPLPKEMEDFVQSSGENGVVVFSLGSMVSNMTEERANVIASALAQIPQKVLWRFDGNKPDTLGLNTRLYKWIPQNDLLGHPKTRAFITHGGANGIYEAIYHGIPMVGIPLFADQPDNIAHMKARGAAVRVDFNTMSSTDLLNALKRVINDPSYKENVMKLSRIQHDQPVKPLDRAVFWIEFVMRHKGAKHLRVAAHDLTWFQYHSLDVIGFLLVCVATVIFIVTKCCLFCFWKFARKAKKGKND
K0.5 (not read [5]; [12]): 2.34 ± 0.19 µM
Vmax (not read [5]; [12]): 3e-05 µmol/min/mg
Vmax/Km (not read [5]; [12]): 10 µL/min/mg
K0.5 (not read [5]; [13]): 5.28 ± 0.98 µM
Vmax (not read [5]; [13]): 1e-05 µmol/min/mg
Vmax/Km (not read [5]; [13]): 2 µL/min/mg

Source: publication PMC5618632, “In Vitro Glucuronidation of Wushanicaritin by Liver Microsomes, Intestine Microsomes and Expressed Human UDP-Glucuronosyltransferase Enzymes” (International Journal of Molecular Sciences, 2017)
